{
  "source": "patent US20160166666A1",
  "about": "“TUMOR ANTIGEN PEPTIDE” (Sumitomo Dainippon Pharma Co., Ltd., priority 2013, published 2016)",
  "binders": {"B1": {"name": "MAGE-1 161-169 peptide (peptide)", "peptide": "EADPTGHSY", "notes": "Negative control peptide for HLA-A02; also called HLA-A02-negative control; Negative control"}},
  "key": {"HLA-A*02:01 on T2 cells [1]": {"biological_target": "T1, HLA-A*02:01 on T2 cells (human, UniProt P04439 25-302 at identity 0.94))", "T1 construct": "whole, on cells; Empty MHC class I on the cell surface that is stabilized by an added peptide; the text gives HLA-A*02:01", "T1 MHC heavy": "not shown", "test": "MHC class I expression stabilization test on T2 cells as in Example 2, flow cytometry"}, "HLA-A*02:01 on T2 cells [2]": {"biological_target": "T1, HLA-A*02:01 on T2 cells", "test": "MHC class I expression stabilization test on T2 cells, peptide 100 µg/mL, FITC anti-HLA-A02 (BB7.2), flow cytometry; control in the column of SEQ ID No: 4"}, "HLA-A*02:01 on T2 cells [3]": {"biological_target": "T1, HLA-A*02:01 on T2 cells", "test": "MHC class I expression stabilization test on T2 cells, flow cytometry"}, "HLA-A*02:01 on T2 cells [4]": {"biological_target": "T1, HLA-A*02:01 on T2 cells", "test": "MHC class I expression stabilization test on T2 cells, peptide 100 µg/mL, FITC anti-HLA-A02 (BB7.2), flow cytometry; control in the column of SEQ ID No: 6"}, "HLA-A*02:01 on T2 cells [5]": {"biological_target": "T1, HLA-A*02:01 on T2 cells", "test": "MHC class I expression stabilization test on T2 cells, peptide 100 µg/mL, FITC anti-HLA-A02 (BB7.2), flow cytometry; control in the column of SEQ ID No: 5"}},
  "data": [
    {"binder": "B1", "values": [
      {"measurement": "mean fluorescence intensity (MFI) solvent ratio", "setting": "HLA-A*02:01 on T2 cells [1]", "value": "1 ratio to solvent"},
      {"measurement": "mean fluorescence intensity (MFI) solvent ratio", "setting": "HLA-A*02:01 on T2 cells [2]", "value": "1 ratio to solvent"},
      {"measurement": "binding result", "setting": "HLA-A*02:01 on T2 cells [3]", "value": "no binding"},
      {"measurement": "mean fluorescence intensity (MFI) solvent ratio", "setting": "HLA-A*02:01 on T2 cells [4]", "value": "1 ratio to solvent"},
      {"measurement": "mean fluorescence intensity (MFI) solvent ratio", "setting": "HLA-A*02:01 on T2 cells [5]", "value": "1 ratio to solvent"}
    ]}
  ]
}
